From publication PMC7366381

Substrate: O=CO
Assay: purified protein
Settings: 1 mM benzyl viologen, pH 7.5, 25 °C, anaerobic, buffer 50 mM phosphate or 25 mM MES/TAPS/HEPES/K acetate (Figure 3 legend)

B1: EcFDH-H (FDH) (Escherichia coli K-12) (protein)
chain: MKKVVTVCPYCASGCKINLVVDNGKIVRAEAAQGKTNQGTLCLKGYYGWDFINDTQILTPRLKTPMIRRQRGGKLEPVSWDEALNYVAERLSAIKEKYGPDAIQTTGSSRGTGNETNYVMQKFARAVIGTNNVDCCARVUHGPSVAGLHQSVGNGAMSNAINEIDNTDLVFVFGYNPADSHPIVANHVINAKRNGAKIIVCDPRKIETARIADMHIALKNGSNIALLNAMGHVIIEENLYDKAFVASRTEGFEEYRKIVEGYTPESVEDITGVSASEIRQAARMYAQAKSAAILWGMGVTQFYQGVETVRSLTSLAMLTGNLGKPHAGVNPVRGQNNVQGACDMGALPDTYPGYQYVKDPANREKFAKAWGVESLPAHTGYRISELPHRAAHGEVRAAYIMGEDPLQTDAELSAVRKAFEDLELVIVQDIFMTKTASAADVILPSTSWGEHEGVFTAADRGFQRFFKAVEPKWDLKTDWQIISEIATRMGYPMHYNNTQEIWDELRHLCPDFYGATYEKMGELGFIQWPCRDTSDADQGTSYLFKEKFDTPNGLAQFFTCDWVAPIDKLTDEYPMVLSTVREVGHYSCRSMTGNCAALAALADEPGYAQINTEDAKRLGIEDEALVWVHSRKGKIITRAQVSDRPNKGAIYMTYQWWIGACNELVTENLSPITKTPEYKYCAVRVEPIADQRAAEQYVIDEYNKLKTRLREAALA
Question: What does the source list for B1?
Answer: Km (labelled compound): 158 ± 8 µM; Km (two highest formate points neglected in fit): 58 ± 8 µM
